{
  "source": "the DeepSol protein solubility set",
  "test": "soluble on expression in E. coli; label from the status in PepcDB or PDB records",
  "data": [
    {"sequence": "MGSDKIHHHHHHMSEVYRQNPKVEAIILAGSVARKLEDEHSDIELHILWSMPPEDEDRKGPINYIGGTILSYHPYEEEEWSETYLTKEGIKLEISNFLTETVEKVIEDVVVQYDISYEKQCIVSSIHDGASLYGEEKVHELKDRVLAYPEDLAKRMISENLWLSNRWHNREALLKRKDWLMLYDVICEAQRNIFGVLFGLNKMYVHHPAFKWMPYNVERMIIKPENLYERMTNTLIGKPEYSIQELGVLIEELLQLVEHHAPELHIAEQQKRIQYAK", "values": [
      {"measurement": "soluble on expression in E. coli", "result": "not soluble"}
    ]},
    {"sequence": "MSLVDQIKSYVAMRKYSIKRDEHGIVRLQLNNKDLFQFGPLDQGWWPDGLYTAPTDEALRYDIEKTKDFGFNMIRKHIKVEPARWYTYCDQIGLIVWQDMPSGDKSPEWQNRKYFEGTELTRSAESEETYRKEWKEVIDCLYSYPCIGTWVPFNEAWGQFKTQEIAEWTKQYDPSRLVNPASGGNHYTCGDMLDLHHYPGPEMFLYDAQRATVLGEYGGIGLVLKDHLWEPNRNWGYIQFNTSAEATAEYLKYAGILKDMISRGFSAAVYTQTTDVEVEVNGLMTYDRKVIKLDESKLKKMNTEICNSLKEGHHHHHH", "values": [
      {"measurement": "soluble on expression in E. coli", "result": "not soluble"}
    ]},
    {"sequence": "GSMGDTKEQRILRYVQQNAKPGDPQSVLEAIDTYCTQKEWAMNVGDAKGQIMDAVIREYSPSLVLELGAYCGYSAVRMARLLQPGARLLTMEMNPDYAAITQQMLNFAGLQDKVTILNGASQDLIPQLKKKYDVDTLDMVFLDHWKDRYLPDTLLLEKCGLLRKGTVLLADNVIVPGTPDFLAYVRGSSSFECTHYSSYLEYMKVVDGLEKAIYQGPSSPDKS", "values": [
      {"measurement": "soluble on expression in E. coli", "result": "soluble"}
    ]},
    {"sequence": "MSLNPYKIEVVDHTKLVESNTSINEKEEKSISSVEERANLYEDDEENDEEEDSNEFASEAIPFYSVLGEKDYFYFPSEQIQEHYSKRIPGYFMPNNYYCVNYDFTYNPVKKNVNGDEDDDDDEEEEEGDSGTDRKVKTQEKFRASFIFIDTWALMVGFPIIRNYRAFREQFNWLSKTLYESAKKSDWIFVVGHHPLISSGRRSDNYSYEEHSFHDIIRDFLFNYHVDAYFSAHDHLMEYIKFGSVDLFINGSSSRVLFDNSSMGRGYFGKIIGKLYPLSCYVLKTIHTGLKPKGCNINRYSKWYNKSDIGFSTHKLTKDELVTQFISSRTGKPLSEKIITKNKKHEREGHHHHHH", "values": [
      {"measurement": "soluble on expression in E. coli", "result": "soluble"}
    ]},
    {"sequence": "LAAQMEQTDIELLWKQLEQTPGAQVTVSLEERTVTCEGNVYPFFVDDYTRWRLMEGLDDVGLTLRKEAEIAAFEARRPSFKPVTQ", "values": [
      {"measurement": "soluble on expression in E. coli", "result": "not soluble"}
    ]},
    {"sequence": "MGSDKIHHHHHHMSWNSFGNFMSARSSALAEFGNMVANLVSAKNEKDISKRNEYYKQAGYSALLAFGNLASNIAPGSTSSHIVNGTNASVIASRLSGNISSAIQEHKDGKVNINRFQNILADLYSLGGLGSTLIEKNGNMQSWGIPLAIAGDIIAATAIATGDTGTISTEEFYNFDNWKGFGYELFEDWSRWVYDWLPDGWNLWKELDRNRCWILTERDGRRQFKWLGKPDPTRGWFDNGHECLKPWGNIFDSYRRGKYHVYDPLALDLDGDGIETVATKGFSGALFDHRNQGIRTATGWVSADDGLLVRDLNGNGIIDNGAELFGDNTKLADGSFAKHGYAALAELDSNGDNIINAADAAF", "values": [
      {"measurement": "soluble on expression in E. coli", "result": "not soluble"}
    ]},
    {"sequence": "GSHMTPPHNYLAVIKVVGIGGGGVNAVNRMIEQGLKGVEFIAINTDAQALLMSDADVKLDVGRDSTRGLGAGADPEVGRKAAEDAKDEIEELLRGADMVFVTAGEGGGTGTGGAPVVASIARKLGALTVGVVTRPFSFEGKRRSNQAENGIAALRESCDTLIVIPNDRLLQMGDAAVSLMDAFRSADEVLLNGVQGITDLITTPGLINVDFADVKGIMSGAGTALMGIGSARGEGRSLKAAEIAINSPLLEASMEGAQGVLMSIAGGSDLGLFEINEAASLVQDAAHPDANIIFGTVIDDSLGDEVRVTVIAAGFDVSGPGRKPVMGETGGAHRIESAKAGKLTSTLFEPVDAVSVPLHTNGATLSIGGDDDDVDVPPFMRR", "values": [
      {"measurement": "soluble on expression in E. coli", "result": "soluble"}
    ]},
    {"sequence": "MSLSEKAKKPQKLKARLPRGFVDRSAADIHATNEMVDKIRRVYELYGFDPIETPLFEYTDALGKFLPDSDRPNEGVFSLQDDDDQWMSLRYDLTAPLARHVAENFNEIQLPYRTYRAGYVFRNEKPGPGRFRQFMQFDADTVGAAGVQADAEMCMMMADTMEALGIARGDYVIRVNNRKVLDGVMEAIGLGGEDNAGRRLNVLRAIDKLDKFGPEGVKLLLGPGRKDESGDFTKGAGLGDEQIEKVLFFVGIKDYAASADDLAKLVAGTSKGEEGVDELNTIGALVSGAGYDATRIKIDPSVVRGLEYYTGPVYEAELTFDVTNEKGEKVVFGSVGGGGRYDGLVSRFMGQPVPATGFSIGVSRLMTALKNLGKLGQVKPLAPVLITVMDGDVESMGRYQRFTQALRAEGIRAEMYQGNWKKFGNQLKYADRLGSPIAIIQGGDERAEGVVQIKDLIEGKRLSGEIEDNASWREARVAQVSEGHHHHHH", "values": [
      {"measurement": "soluble on expression in E. coli", "result": "soluble"}
    ]},
    {"sequence": "MLTLTAGKKAAMDRLSTQEGIISALAIDQRGALKKMIKALDVEPTDAQIETFKELVSKELTPYASAILLDPEYGLPAAKARDTEAGLLLAYEKTGYDATTPGRLPDLLADWSVLRLKEEGADAIKFLLYYDVDEDPEINHQKHVFIERLGSECAEEDLPFYLELVSYDAQIADATSLEYAKVKPHKVNEMMKEFSKPQYKVDVLKVEVPVNMNFVEGFAPAETAYTKEEAANYFLEQSQATDLPFIFLSAGVSTELFQETLRFAKEAGSTFNGVLCGRATWKNGVKPFVEAGETAACDWLKTEGRENIESLNEVIAATASSWHAKVQVNEG", "values": [
      {"measurement": "soluble on expression in E. coli", "result": "not soluble"}
    ]},
    {"sequence": "MGSDKIHHHHHHMGGLGARHLYGSALGEHLVFKGGTSLSKAYQVIQRFSEDVDLTYDIRAIAPDLVGDDGEALPETRSEEKRWSSEVRKRLPNWVEGSVQPIIADALAAEALAAAIRVEGEKLFIDYAAATAGSGYVAPSVILEFGARSTGEPASLRDIACDASGLIEGVTFPTARPRVMHAERTFWEKATAIHVFCLQERLRGDRFARHWHDVARLDETGFTPSAFADRDLANAVARHKTMFFAEKAPDRTPIDYAAAVNGGLRLVPAGDGLKALEEDYARMVDDGLLLEDAEPFEALMARCADIAERANYIRE", "values": [
      {"measurement": "soluble on expression in E. coli", "result": "not soluble"}
    ]},
    {"sequence": "MGSSHHHHHHSSGLVPRGSHMWIGVISLFPEMFKAITEFGVTGRAVKHNLLKVECWNPRDFTFDKHKTVDDRPYGGGPGMLMMVQPLRDAIHTAKAAAGEGAKVIYLSPQGRKLDQGGVTELAQNQKLILVCGRYEGIDERLIQTEIDEEWSIGDYVLTGGELPAMTLIDAVARFIPGVLGKQASAEEDSFADGLLDCPHYTRPEVLEGLTVPPVLMSGHHEEIRKWRLKQSLQRTWLRRPELLEGLALTDEQRKLLKEAQAEHNSLEHHHHHH", "values": [
      {"measurement": "soluble on expression in E. coli", "result": "soluble"}
    ]},
    {"sequence": "EKKPYIISNVGMTLDGKLATINNDSRISCEEDLIRVHKIRANVDGIMVGIGTVLKDDPRLTVHKIKSDRNPVRIVVDSKLRVPLNARVLNKDAKTIIATTEDTNEEKEKKIKILEDMGVEVVKCGRGKVDLKKLMDILYDKGIKSILLEGGGTLNWGMFKEGLVDEVSVYIAPKIFGGKEAPTYVDGEGFKTVDECVKLELKNFYRLGEGIVLEFKVKK", "values": [
      {"measurement": "soluble on expression in E. coli", "result": "soluble"}
    ]},
    {"sequence": "NLNKVKFTEEHAIEVTNWKYEGKYSIYNLPPWEEIKKKNFSLAKEDKRKNFISFINDNKELIGFINLLDEGSSVFFGIGMKPNYCGMGIGKEIISLRLQECRNKYSTKPIVLNVRTWNMRAVKCYESQGFKIVETKVQKTH", "values": [
      {"measurement": "soluble on expression in E. coli", "result": "not soluble"}
    ]},
    {"sequence": "MSLNASPQEDAGPEPVVYLVDDQQAELDLLQRWCSQEGLKTETFNQAEDLLKLLHADSHGCVVADLRMPRLSGLELQAEMSRRELTIPVILVTGHGDAENCRAAFQQGVFDFIEKGFRHEEILHAINSAIRKHRRDRFRHQVRKEALDLLRKISPRETEVMLLLAGGSPLKGIAQELSISVQTASKHRGSIFTKLNIDNEVDLYKMLLAAEVNLDVGEGHHHHHH", "values": [
      {"measurement": "soluble on expression in E. coli", "result": "soluble"}
    ]},
    {"sequence": "MKKEQISTQFYEVNPHTMIIFPKKSGSIVYSEIYEVDSHYTSKFTPFELIKTSCNFFGSSYDGGRRNGIPKIKTSSQKDVFILLLYRRNSISVTNY", "values": [
      {"measurement": "soluble on expression in E. coli", "result": "not soluble"}
    ]},
    {"sequence": "MNHTADNCIFCKIIDGQILCSKVYEDEHVLAFLDISQVTKGHTLVIPKVHKQDIFALTPEIASHIFSVVPKIANAIKAEFNPVGFNLLNNNGEKAGQTVFHFHLHLIPRYGENDGFGAVWKSHQNEYTMENLQNIASTIANSVK", "values": [
      {"measurement": "soluble on expression in E. coli", "result": "not soluble"}
    ]},
    {"sequence": "MSCVHYKFSSKLNYDTVTFDGLHISLCDLKKQIMGREKLKAADCDLQITNAQTKEEYTDDNALIPKNSSVIVRRIPIGGVKSTSKTYVISRTEPAMATTKAIDDSSASISLAQLTKTANLAEANASEEDKIKAMMSQSGHEYDPINYMKKPLGPPPPSYTCFRCGKPGHYIKNCPTNGDKNFESGPRIKKSTGIPRSFMMEVKDPNMKGAMLTNTGKYAIPTIDAGRLLFHKLGTMGHKQIDTYFWNRGDVYGATATQITHLREAYAIGKKEKPPFLPEEPSSSSEEDDPIPDELLCLICKDIMTDAVVIPCCGNSYCDECIRTALLESDEHTCPTCHQNDVSPDALIANKFLRQAVNNFKNETGYTKRLRKQLPPPPPPIPPPRPLIQRNLQPLMRSPISRQQDPLMIPVTSSSTHPAPSISSLTSNQSSLAPPVSGNPSSAPAPVPDITATVSISVHSEKSDGPFRDSDNKILPAAALASEHSKGTSSIAITALMEEKGYQVPVLGTPSLLGQSLLHGQLIPTTGPVRINTARPGGGRPGWEHSNKLGYLVSPPQQIRRGERSCYRSINRGRHHSERSQRTQGPSLPATPVFVPVPPPPLYPPPPHTLPLPPGVPPPQFSPQFPPGQPPPAGYSVPPPGFPPAPANLSTPWVSSGVQTAHSNTIPTTQAPPLSREEFYREQRRLKEEEKKKSKLDEFTNDFAKELMEYKKIQKERRRSFSRSKSPYSGSSYSRSSYTYSKSRSGSTRSRSYSRSFSRSHSRSYSRSPPYPRRGRGKSRNYRSRSRSHGYHRSRSRSPPYRRYHSRSRSPQAFRGQSPNKRNVPQGETEREYFNRYREVPPPYDMKAYYGRSVDFRDPFEKERYREWERKYREWYEKYYKGYAAGAQPRPSANRENFSPERFLPLNIRNSPFTRGRREDYVGGQSHRSRNIGSNYPEKLSARDGHNQKDNTKSKEKESENAPGDGKGNKHKKHRKRRKGEESEGFLNPELLETSRKSREPTGVEENKTDSLFVLPSRDDATPVRDEPMDAESITFKSVSEKDKRERDKPKAKGDKTKRKNDGSAVSKKENIVKPAKGPQEKVDGERERSPRSEPPIKKAKEETPKTDNTKSSSSSQKDEKITGTPRKAHSKSAKEHQETKPVKEEKVKKDYSKDVKSEKLTTKEEKAKKPNEKNKPLDNKGEKKKKK", "values": [
      {"measurement": "soluble on expression in E. coli", "result": "soluble"}
    ]},
    {"sequence": "MAEERHHTEHIPQWKKDEIENIKELIQSHKVFGMVRIEGILATKIQKIRRDLKDVAVLKVSRNTLTERALNQLGESIPEMTRYLDNQTALIFTNESPFKLYKLLEQTKTPSPIKAGAIAPEDIIVQKGPTSFPPGPILGELQSAGIPASIDAGKVAVKETKVVCKAGEAVPQKLATMLSKLEIYPLIVGLDLRAAYDDGTIYEPELLAVDESKYFSDIIRAAQNAFNLSVNTAYPTGATIGTLLAKAYAESKSLGVNAVILEPGVMDSLLAKAHVQMTSVASEAAEKDANAVDDDLREVLGAAASAAAAATVAAPAAEEEKKEEEPEEEEEDHAEEDGMAGLGALFGLEHHHHHH", "values": [
      {"measurement": "soluble on expression in E. coli", "result": "soluble"}
    ]},
    {"sequence": "MSLKEAEVLKYEAFTSSPGKGNPAGVVLQGDDYTEDEMQIIAERAGYSETSFIRKSESADLELRYFTPGHEMNLCGHATVASLYALCEKGMLESGKTYSIQTKAGILPVKISEKDGRIHITLEQASPQFKPFTGDRKKLADALGITDEDFHEDLPIVFGSTGIWTAIVPLKSLEASKKMVPDNKQFPEVLVDLPKASVHPFTFETVHPDSDLHGRHFSSPYSGTIEDPVTGTASGVMGAYMKHYGNAEQHKFIIEQGQEIGKDGKVEIEMNEAGGHVKVNMTGTAVYSETRILKIEGGSHHHHHH", "values": [
      {"measurement": "soluble on expression in E. coli", "result": "soluble"}
    ]}
  ]
}
